The record followed here is US6323185, “Anti-viral guanosine-rich oligonucleotides and method of treating HIV” (The United States of America as represented by the …).

By IC50 is commonly meant the concentration that inhibits the measured activity by half. High values mean lower potency, low ones higher potency.

The target in one data set is CD4 (UniProt P01730 P01730:26-396). Kind of data set: competition; ID50, oligo with immobilized CD4. To be noted: tags: immobilized, gp120 capture ELISA kit. (In general: In an ELISA, binding on a coated surface is turned into a signal by an enzyme label.)
For data set [1], the target named is T1, gp120 envelope glycoprotein (HIV-1, UniProt P04578 P04578:33-511). Kind of data set: competition; ID50, inhibition of gp120 binding to CD4, oligo preincubated with gp120. To be noted: tags: gp120 capture ELISA kit.
Data set [2] deals with T1, gp120 envelope glycoprotein. In words: competition; ID50, gp120/CD4 ELISA; PD oligos did not inhibit V3 Mab binding. The following applies: tags: gp120 capture ELISA kit.
For data set [3], the target named is T2, HIV-1 integrase wild-type (IN1-288) (HIV-1, UniProt P12497 P12497:1148-1435). In words: inhibition; first activity column (headed strand transfer); other column 0.100. To be noted: G4.
Data set [4] concerns the target HIV-1 integrase wild-type (IN1-288) (HIV-1, UniProt P12497 P12497:1148-1435). In words: UV crosslinking, about 39 kDa complex; not competed by excess T30177 added after preincubation. The following applies: label: 5'-32P.
Data set [5] addresses T3, HIV-1 reverse transcriptase (HIV-1 (BH10), UniProt P03366;P03366 P03366:600-1159,P03366:600-1039). In words: inhibition; gapped duplex DNA template; duplicate 10.0 uM. To be noted: intramolecular G4 (G-octet).
In data set [6] the target is T3, HIV-1 reverse transcriptase. Kind of data set: inhibition; poly(rA).p(dT)12-18 template; duplicate 4.2 uM. The following applies: intramolecular G4 (G-octet).
Data set [7] has as its target T2, HIV-1 integrase wild-type (IN1-288). In words: inhibition; 3'-processing; strand transfer 0.046 uM; Table D-1 79 nM / 49 nM; FIG. 30 55 nM; Mn. To be noted: intramolecular G4 (G-octet).
The target of data set [8] is T3, HIV-1 reverse transcriptase. Kind of data set: inhibition; primed ribosomal RNA template; duplicate 0.36 uM. The following applies: intramolecular G4 (G-octet).

B1: I100-00 (ssDNA)
DNA: GTTGGGGGTTGTTGGTGGGGTGGTGG
modifications: phosphodiester
Take B1: the IC50 is 18 µM in the data set with CD4 and 3.5 µM in data set [1].

B2: I100-07 (ssDNA)
DNA: GTGGTGGGTGGGTGGGTGGTGGGTGGTGGTTGTGGGTGGGTGGTG
modifications: phosphodiester
For the molecule B2, the figures for the IC50 (with CD4; in data set [2]) were 4.25 µM and 0.8 µM, respectively.

B3: T30745 (ssDNA)
DNA: GTGGTGGGTGGGCGGGT
modifications: PS at first and last linkages
The molecule B3 registered an IC50 in data set [3] of 0.1 µM.

B4: HIV-1 U5 LTR 21-mer duplex (AE118/AE117) (dsDNA)
DNA 1: GTGTGGAAAATCTCTAGCAGT
DNA 2: ACTGCTAGAGATTTTCCACAC
For B4, the binding result in [4] is on record as “binds”.

B5: T30177 (AR177, Zintevir) (ssDNA)
DNA: GTGGTGGGTGGGTGGGT
modifications: PS at first and last internucleoside linkages, 3'-OH
Turning to B5, the IC50 was 8 µM in data set [5], 11 µM in [6], 0.092 µM in data set [7] and 1.2 µM in [8].
